Laboratory results as given in patent US20220135686A1 (SUNSHINE GUOJIAN PHARMACEUTICAL SHANGHAI, published 2022).
“And” between values parts separate entries of the source, which are not always exact repeats. Identical values can stand only once.

Assays:
[1] = target: T1, PD1-ECD-hFc (human, UniProt Q15116 25-170); assay: ELISA, plate coated with PD1-ECD-hFc 10 ng/well, OD450
T1 construct: extracellular domain; also called Human PD-1-ECD-hFc; human PD1-ECD-hFc; not shown: Fc segment of human IgG1
Protocol: (§1) The plates were blocked with PBST containing 1% BSA. The antibodies to be tested were serially diluted, then transferred to the above plates coated with recombinant proteins, incubated at room temperature for half an hour and then the plates were washed; an appropriately diluted HRP-labeled goat anti-human antibody (Fc-Specific) (purchased from Sisgma) was added, incubated at room temperature for half an hour and then the plates were washed; chromogenic solution with TMB as a substrate was added at 100 μl/well, incubated at room temperature for 1˜5 min; 50 μl of stop solution (2M H₂SO₄) was added to stop the reaction. OD450 values were read with a microplate reader (SpectraMax 190). Graphing and data analysis were performed using GraphPad Prism6, and EC50 values were calculated.

[2] = target: T2, PD-L1-ECD-hFc (human, UniProt Q9NZQ7 19-238); assay: ELISA, coated PD-L1-ECD-hFc
T2 construct: extracellular domain; also called biotinylated PD-L1-ECD-hFc; not shown: Fc segment of human IgG1
Protocol: as §1

[3] = target: T3, PD-L1-His (human, UniProt Q9NZQ7 19-238); assay: ELISA, coated PD-L1-His
T3 construct: extracellular domain; Expressed in HEK293F; also called recombinant protein PD-L1-His; not shown: polyhistidine tag

[4] = target: T4, PD1-His (human, UniProt Q15116 25-170); assay: ELISA, plate coated with PD1-His 10 ng/well, OD450
T4 construct: extracellular domain; Expressed in HEK293F; also called recombinant protein PD1-His; not shown: polyhistidine tag

[5] = target: T3, PD-L1-His; assay: SPR (Biacore 8K), antibody captured on Protein A/G chip, PD-L1-His injected
Protocol: (§2) Herein, the affinity of the above antibodies to PD-1 or PD-L1 was determined by Biacore 8K (GE healthcare). On Biacore 8K, the chip coupled with Protein A/G was used to capture various antibodies, respectively, and then the recombinant protein PD1-His or PD-L1-His was injected to obtain the binding-dissociation curve, which was eluted with 6M guanidine hydrochloride regeneration buffer for next cycle. Data were analyzed using the Biacore 8K Evaluation Software.

[6] = target: T2, PD-L1-ECD-hFc; assay: competition ELISA: blocks biotinylated PD-L1-ECD-hFc binding to coated PD1-ECD-hFc
Protocol: Human PD-1-ECD-hFc was diluted to 2 μg/ml with sodium carbonate buffer (1.59 g Na₂CO₃ and 2.93 g NaHCO₃ dissolved in 1 L of pure water), and added into a 96-well ELISA plate with a multichannel pipette at 100 μl/well, incubated at room temperature for 4 h; washed once with PBST, blocked with PBST containing 1% BSA at 200 μl/well, incubated at room temperature for 2 h; the blocking solution was discarded, the plate was patted dry, and placed at 4° C. for later use. […] OD450 values were read with a microplate reader (SpectraMax 190). Graphing and data analysis were performed using GraphPad Prism6, and IC50 values were calculated.

[7] = target: T4, PD1-His; assay: SPR (Biacore 8K), antibody captured on Protein A/G chip, PD1-His injected
Protocol: as §2

[8] = target: T1, PD1-ECD-hFc; assay: ELISA, coated PD1-ECD-hFc
Protocol: as §1

[9] = target: T4, PD1-His; assay: ELISA, coated PD1-His
[10] = target: T2, PD-L1-ECD-hFc; assay: ELISA, plate coated with PD-L1-ECD-hFc 10 ng/well, OD450
Protocol: as §1

T2 sequence (Q9NZQ7 19-238 limits assumed): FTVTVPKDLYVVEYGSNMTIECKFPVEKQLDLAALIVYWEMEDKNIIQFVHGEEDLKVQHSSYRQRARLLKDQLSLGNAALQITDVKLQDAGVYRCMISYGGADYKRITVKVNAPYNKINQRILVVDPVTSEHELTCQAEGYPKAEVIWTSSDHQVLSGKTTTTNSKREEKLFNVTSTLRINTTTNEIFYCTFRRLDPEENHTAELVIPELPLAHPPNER
T3 sequence (Q9NZQ7 19-238): as the sequence (Q9NZQ7 19-238 limits assumed) above
T1 sequence (Q15116 25-170 limits assumed): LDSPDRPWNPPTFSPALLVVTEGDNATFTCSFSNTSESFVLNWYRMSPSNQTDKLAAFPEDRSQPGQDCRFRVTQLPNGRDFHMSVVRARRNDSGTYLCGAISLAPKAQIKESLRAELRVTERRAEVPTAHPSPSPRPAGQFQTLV
T4 sequence (Q15116 25-170): as the sequence (Q15116 25-170 limits assumed) above

Row | Binder | binding result [1] | EC50 [3] | Kd [5] [pM] | koff [5] [s⁻¹] | kon [5] [M⁻¹ s⁻¹] | Kd [7] [pM] | koff [7] [s⁻¹] | kon [7] [M⁻¹ s⁻¹] | EC50 [9] [pM] | other results
1 | Anti-PDL1 (antibody, human IgG1, kappa, V domains shown, Humanized from murine M8; human IgG1 / kappa; also called humanized anti-human PD-L1 antibody; Anti-PDL1-HC+Anti-PDL1-LC) VH: QVQLQQSGGGLVKPSQSLSLTCTVSGFSLTSYGVHWVRQPPGKGLEWIGLIWSGGGTDYNPSLKSRLTISRDTSKNQVSFKISSLTAADTAVYYCARQLGLRAMDYWGQGTSVTVSS VL: EIVLTQSPDFLSVTPKEKVTITCRASQSIGTTIHWYQQKPDQSPKLLIKYASQSFSGVPSRFSGSGSGTDFTLTINSVEAEDAATYYCQQSNSWPLTFGAGTKLEIKR | no binding (tested: log10(nM) about 2.1 (about 130 nM)) | 120 pM and 102 pM | 843 | 0.00138 | 1.63e+06 |  |  |  |  | EC50 [2]: 125 pM; binding result [4]: no binding (tested: log10(nM) about 2.4 (about 250 nM)); IC50 [6]: 1370 pM
2 | Anti-PDL1-HC+609-LC (antibody, human IgG1, kappa, V domains shown, also called hybrid antibody) VH: QVQLQQSGGGLVKPSQSLSLTCTVSGFSLTSYGVHWVRQPPGKGLEWIGLIWSGGGTDYNPSLKSRLTISRDTSKNQVSFKISSLTAADTAVYYCARQLGLRAMDYWGQGTSVTVSS VL: EIVLTQSPATLSLSPGERATLSCRASQSISNFLHWYQQKPGQAPRLLIKYASQSISGIPARFSGSGSGTDFTLTISSLEPEDFAVYFCQQSNSWPHTFGQGTKVEIKR | no binding (tested: log10(nM) about 2.1 (about 130 nM)) |  |  |  |  |  |  |  |  | 
3 | 609-HC+Anti-PDL1-LC (antibody, human IgG4 S228P, kappa, V domains shown, also called hybrid antibody) VH: EVKLVESGGGLVQPGGSLRLSCAASGFAFSSYDMSWVRQAPGKRLEWVATISGGGRYTYYPDTVKGRFTISRDNAKNSHYLQMNSLRAEDTAVYFCASPYGGYFDVWGQGTLVTVSS VL: EIVLTQSPDFLSVTPKEKVTITCRASQSIGTTIHWYQQKPDQSPKLLIKYASQSFSGVPSRFSGSGSGTDFTLTINSVEAEDAATYYCQQSNSWPLTFGAGTKLEIKR |  |  |  |  |  | 34900 | 0.00439 | 126000 | 382 | EC50 [8]: 244 pM
4 | mAb1-25-Hu (609) (antibody, human IgG4 S228P, kappa, V domains shown, Humanized anti-human PD-1 monoclonal antibody, human IgG4 (S228P) / kappa) VH: EVKLVESGGGLVQPGGSLRLSCAASGFAFSSYDMSWVRQAPGKRLEWVATISGGGRYTYYPDTVKGRFTISRDNAKNSHYLQMNSLRAEDTAVYFCASPYGGYFDVWGQGTLVTVSS VL: EIVLTQSPATLSLSPGERATLSCRASQSISNFLHWYQQKPGQAPRLLIKYASQSISGIPARFSGSGSGTDFTLTISSLEPEDFAVYFCQQSNSWPHTFGQGTKVEIKR |  |  |  |  |  |  |  |  |  | binding result [10]: no binding (tested: log10(nM) about 2.1 (about 130 nM))
5 | PDL1-Fab-609-IgG4 (bispecific antibody, expressed with the common light chain Anti-PDL1-LC; also called tetravalent bispecific antibody against PD-1 and PD-L1) heavy: not shown light: EIVLTQSPDFLSVTPKEKVTITCRASQSIGTTIHWYQQKPDQSPKLLIKYASQSFSGVPSRFSGSGSGTDFTLTINSVEAEDAATYYCQQSNSWPLTFGAGTKLEIKRTVAAPSVFIFPPSDEQLKSGTASVVCLLNNFYPREAKVQWKVDNALQSGNSQESVTEQDSKDSTYSLSSTLTLSKADYEKHKVYACEVTHQGLSSPVTKSFNRGEC |  | 140 pM |  |  |  |  |  |  | 5310 | 
6 | 609-Fab-PDL1-IgG4 (bispecific antibody, expressed with the common light chain Anti-PDL1-LC; also called tetravalent bispecific antibody against PD-1 and PD-L1) heavy: not shown light: EIVLTQSPDFLSVTPKEKVTITCRASQSIGTTIHWYQQKPDQSPKLLIKYASQSFSGVPSRFSGSGSGTDFTLTINSVEAEDAATYYCQQSNSWPLTFGAGTKLEIKRTVAAPSVFIFPPSDEQLKSGTASVVCLLNNFYPREAKVQWKVDNALQSGNSQESVTEQDSKDSTYSLSSTLTLSKADYEKHKVYACEVTHQGLSSPVTKSFNRGEC |  | 135 pM | 608 | 0.00112 | 1.85e+06 | 25700 | 0.00443 | 173000 | 421 | 
